Common to all, as to experiment: SPR
A general note: SPR reads the build-up and loss of mass on a sensor chip optically.

Test [1] has as its target 337_1_C08 variant VH K5T8 / VL 9.
The target of test [2] is 337_1_C08 variant VH K5E3 / VL 61.
Test [3] deals with 337_1_C08 variant VH H5E2 / VL 2.
Test [4] concerns the target 337_1_C08 variant VH H5E2 / VL 23.
Test [5] concerns the target 337_1_C08 variant VH K5T8 / VL 6.

As usually defined, the Kd is the free concentration of one partner at which half of the binding sites on the other are occupied at equilibrium, for simple one-to-one binding. A high value points to a looser complex. For “Monomeric human PD-1 rCD4 antigen (from UniProt Q15116 25-288) (receptor)”, the Kd in test [1] was 2.9 nM; in test [2], 4.8 nM; in test [3], 30 nM; in test [4], 54 nM; in test [5], 9 nM.

These data come from PMC6601556.
